Laboratory results reported in patent publication US20070099283.

Biological target: T1, propeptide (prosequence) of proteinase K from Tritirachium album Limber
T1 chain: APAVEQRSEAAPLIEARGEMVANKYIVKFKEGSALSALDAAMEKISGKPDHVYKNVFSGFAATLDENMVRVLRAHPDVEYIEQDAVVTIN

B1: mature recombinant proteinase K from Tritirachium album Limber (processed, natured from pro-proteinase K) (protein)
chain: AAQTNAPWGLARISSTSPGTSTYYYDESAGQGSCVYVIDTGIEASHPEFEGRAQMVKTYYYSSRDGNGHGTHCAGTVGSRTYGVAKKTQLFGVKVLDDNGSGQYSTIIAGMDFVASDKNNRNCPKGVVASLSLGGGYSSSVNSAAARLQSSGVMVAVAAGNNNADARNYSPASEPSVCTVGASDRYDRRSSFSNYGSVLDIFGPGTSILSTWIGGSTRSISGTSMATPHVAGLAAYLMTLGKTTAASACRYIADTANKGDLSNIPFGTVNLLAYNNYQA
  proteinase K activity (chromogenic substrate test) of gel filtration fractions: no activity is found without prior activation
